Tests used:
[1] = molecular target: purified recombinant linear UB dimers
[2] = molecular target: K48-tetraubiquitin chains, P0CG48
[3] = molecular target: K63-tetraubiquitin chains, P0CG48
[4] = molecular target: purified recombinant linear UB tetramers
[5] = molecular target: HA3-UBQ-GST [GST: P08515]
[6] = molecular target: purified recombinant linear UB trimers
HA3-RUB-GST, Q9SHE7 = molecular target: T1, HA3-RUB-GST, Q9SHE7
T1 chain: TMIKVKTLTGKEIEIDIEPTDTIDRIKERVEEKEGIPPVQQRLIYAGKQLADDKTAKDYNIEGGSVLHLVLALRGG

Chain of K48-tetraubiquitin chains, P0CG48 (P0CG48 whole entry, looked up): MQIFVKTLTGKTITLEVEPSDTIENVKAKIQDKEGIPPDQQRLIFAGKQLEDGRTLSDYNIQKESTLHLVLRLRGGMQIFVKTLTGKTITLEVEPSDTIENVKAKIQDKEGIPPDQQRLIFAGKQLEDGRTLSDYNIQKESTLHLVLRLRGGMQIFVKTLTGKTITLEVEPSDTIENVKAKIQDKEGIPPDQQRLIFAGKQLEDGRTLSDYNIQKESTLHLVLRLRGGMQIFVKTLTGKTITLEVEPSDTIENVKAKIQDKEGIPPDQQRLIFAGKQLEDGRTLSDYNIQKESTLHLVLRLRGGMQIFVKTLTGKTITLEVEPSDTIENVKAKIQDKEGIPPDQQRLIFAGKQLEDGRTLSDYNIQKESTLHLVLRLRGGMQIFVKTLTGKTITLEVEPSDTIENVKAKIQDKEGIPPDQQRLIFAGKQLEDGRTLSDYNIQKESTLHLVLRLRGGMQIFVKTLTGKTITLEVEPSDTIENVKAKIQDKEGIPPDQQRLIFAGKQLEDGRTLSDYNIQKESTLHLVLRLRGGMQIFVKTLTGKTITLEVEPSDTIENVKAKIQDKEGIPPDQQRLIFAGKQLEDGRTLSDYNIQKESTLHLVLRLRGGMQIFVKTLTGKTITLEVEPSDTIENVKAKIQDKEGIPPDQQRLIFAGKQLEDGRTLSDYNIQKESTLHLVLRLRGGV
Chain of K63-tetraubiquitin chains, P0CG48 (P0CG48 whole entry, looked up): as above

B1: His-tagged OTU9 (protein)
chain: MGYEPDPDALRWGLHDLEVCTLTNAGSCSSVTRYESGGGGTQGYVREGYNQPVTGYVDNDAVIAQFYQDELSRVARAEASGINSLSPTSVVAQDWPHPHQGQENQGEAIDITQESDILHNHNGNMEDKNVARIRFEGGQSSPSRDDDSVCSVEIEEESWSEVGKRLNQMIPIAHVPKINGELPSEDEQISDHERLFQRLQLYGLVENKIEGDGNCQFRSLSDQLYRSPEHHNFVREQVVNQLAYNREIYEGYVPMAYNDYLKAMKRNGEWGDHVTLQAAADLFGVRMFVITSFKDTCYIEILPHFQKSNRLICLSFWAEVHYNSIYPEGELPIPEGKKKKKYWVF
in vitro deubiquitylation activity [1]: - | in vitro deubiquitylation activity [2]: ++ | in vitro deubiquitylation activity (HA3-SUMO-GST, P55852): - | in vitro deubiquitylation activity [3]: ++ | in vitro deubiquitylation activity [4]: - | in vitro deubiquitylation activity [5]: ++ | in vitro deubiquitylation activity [6]: - | in vitro deubiquitylation activity (HA3-RUB-GST, Q9SHE7): +

B2: GST-OTU10 (protein)
chain: MVSHEENTSIVEWFLGPHPYTYPPYGIEMIHEDDEVAVAHHHHHHQSGEYYREYEDHRSSDVDNDEIIARTLQDDFLQLEIAESNDYSHQNQQQQHQQEGYTNNYSNNNNGYAWNDQSPAVDYSSEWIGNDNDQDGRSDDSVNVFSCSSPSDTDEYVYSWESDQCDADGEFGRRLNQMVPIPYIPKINGEIPPEEEAVSDHERLRNRLEMFDFTEVKVPGDGNCQFRALADQLYKTADRHKHVRRQIVKQLKSRPDSYQGYVPMDFSDYLRKMSRSGEWGDHVTLQAAADAYRVKIVVLTSFKDTCYIEILPTSQESKGVIFLSFWAEVHYNAIYLNRDTSETELQRKRKWWRFGN
in vitro deubiquitylation activity [1]: - | in vitro deubiquitylation activity [2]: ++ | in vitro deubiquitylation activity (HA3-SUMO-GST, P55852): - | in vitro deubiquitylation activity [3]: +++ | in vitro deubiquitylation activity [4]: - | in vitro deubiquitylation activity [5]: ++ | in vitro deubiquitylation activity [6]: - | in vitro deubiquitylation activity (HA3-RUB-GST, Q9SHE7): +

— patent US20150353909
